The test system of this data set is MS2 coat protein. In words: apparent KD of MS2 coat protein; designed switch direction (-1 OFF switch, 1 ON switch): -1; higher = weaker reporter binding. A digest of the protocol:
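Designed RNA switches with common flanks were made on Illumina chips by stalled E. coli RNA polymerase. Titration with SNAP-549-labelled MS2 coat protein doubled from 0.7 or 1.5 nM up to 3 µM. Apparent KD is each design's median over clusters after curve-fitting normalised fluorescence.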

[1] abbreviates: input ligand: microRNA oligo, concentration not stated.
The mark [2] stands for this setting: Eterna round: R95, input ligand: FMN 200 uM.
The mark [3] stands for this setting: Eterna round: R95, input ligand: microRNA oligo, concentration not stated.
Setting [4] is: Eterna round: R95, input ligand: none.

Take “UGUUGUUACGUAGGAUAUUGUCAACAGGCAAUAGGAUAUGCGAAAGCAGAAGGAUCGCCAACAGGCGAGAAGGACGGGUUAACA [pwkr exNG2 2xF7 2xFMN.2] (Eterna round: R96, puzzle: Exclusion NG 2)”: the “apparent KD of MS2 coat protein” value was determined as 849 nM (input ligand: FMN 200 uM), 771 nM under setting [1] and 134 nM (input ligand: none).

Take “UUUAACAAGCCAGAUCCUCACAUGAGGAUCACCCAUGUGCUCGUCUGAUUUUGUACUAUCAUGUGAGUGAUAGUAUU [Level Boss var2-05] (puzzle: Sensor v3, turn-off variant 1)”: the “apparent KD of MS2 coat protein” value under setting [2] came out at 165 nM, the “apparent KD of MS2 coat protein” value under setting [3] is 15.2 nM and the “apparent KD of MS2 coat protein” value under setting [4] was found to be 181 nM.

Take “AAUAAAACAUAGGAUAUCGAAUUUAUCAUUUAACGAGAAGGAUGAACAUGAGGAUCACCCAUGUGGUAUCAUGG [Mat - Exclusion 6 - JL Mod - D7] (puzzle: Exclusion 6)”: the “apparent KD of MS2 coat protein” value under setting [2] was determined as 168 nM, the “apparent KD of MS2 coat protein” value under setting [3] was 244 nM and the “apparent KD of MS2 coat protein” value under setting [4] turned out to be 216 nM.

Regarding “CGUCCGGCUUCCCUUCAAAACAUGAGGAUCACCCAUGUUUUUGUUUUUGCGAGCUUUUUGCUUUUUGCUCGUCUUGU [Even Better Attempt] (puzzle: Sensor v3, turn-off variant 1)”, the “apparent KD of MS2 coat protein” value under setting [2] is 20.1 nM, the “apparent KD of MS2 coat protein” value under setting [3] stood at 12.5 nM and the “apparent KD of MS2 coat protein” value under setting [4] is 19.9 nM.

On to “ACGUAUAGAGGAUAUACUGAAUAUUACAUGAGGAUCACCCAUGUUCUUCAAAGUAUAUUUGUAGAAGGCUAAUGAA [EX-5 Malc#9] (puzzle: Exclusion 5)”, for which the “apparent KD of MS2 coat protein” value was 15.8 nM under setting [2], 10.2 nM under setting [3] and 9.61 nM under setting [4].

In the case of “CUAGCGAAUGUAGGAUAUCGGACUGUUUCAGUCUGAGAAGGACAUGAGGAUCACCCAUGUGUAGCUACGUGAGUAGCACGCUAG [JL ENG1 3.89] (Eterna round: R96, puzzle: Exclusion NG 1)”, the “apparent KD of MS2 coat protein” value was 58.7 nM (input ligand: FMN 200 uM), 16.1 nM under setting [1] and 27.5 nM (input ligand: none).

Take “CAAAAGGAAGGAUAUGCAUCGGGAGGUGCUCAGCAUCAAAUACAUGAGGAUCACCCAUGUAGAAGGUCUGAAAA [Edbile] (puzzle: Exclusion 2)”: under setting [3], the “apparent KD of MS2 coat protein” value was 31.5 nM.

In the case of “AGAGUAGGCAUAGGAUAUCCGAAAGGAAGUGUAGGAGAAGGAUGUCGAGACAUGAGGAUCACCCAUGUGAUGCUUAGUCGAAAG [PowerStrip EXNG 1.18] (Eterna round: R96, puzzle: Exclusion NG 1)”, the “apparent KD of MS2 coat protein” value (input ligand: FMN 200 uM) is 359 nM, the “apparent KD of MS2 coat protein” value under setting [1] was found to be 61.1 nM and the “apparent KD of MS2 coat protein” value (input ligand: none) is 50.8 nM.

As for “UGAGUGCUGCGAGGAUAUACAUGAGGAUCACCCAUGUAUUAGUGUGAGGCUUUGCCUCACACAAUGUAGAAGGCGCAGUACUCU [JL ENG2 1.03] (Eterna round: R96, puzzle: Exclusion NG 2)”, the “apparent KD of MS2 coat protein” value amounted to 5.74 nM (input ligand: FMN 200 uM), 10.3 nM under setting [1] and 13.1 nM (input ligand: none).

As for “AAAAAGUUGAGAGGAUAUGGUGCCGAAACGGUGCUAGAAGGCUUUACAAAAAAACAUGAGGAUCACCCAUGUUCAUGUAGAGAA [AK ExNG1-1.1] (Eterna round: R96, puzzle: Exclusion NG 1)”, the “apparent KD of MS2 coat protein” value (input ligand: FMN 200 uM) stood at 16.3 nM, the “apparent KD of MS2 coat protein” value under setting [1] turned out to be 13.3 nM and the “apparent KD of MS2 coat protein” value (input ligand: none) was 15.6 nM.

As for “UUUUACUGAGGAUAUACAUUUUUUUAUUUAUUUAUAAUAUUACAUGAGGAUCACCCAUGUAGAAGGCAGAUUUU [My Design] (puzzle: Exclusion 2)”, under setting [3], the “apparent KD of MS2 coat protein” value was found to be 26.7 nM.

For “ACAAGCUUUUUGCAUGUUAGGUUUGUUGCUUCGUAUGUAACAUGAGGAUCACCCAUGUAUUACUGAUGUCGUCGUUU [JR_SV3TOV2_Sub089] (puzzle: Sensor v3, turn-off variant 2)”, the “apparent KD of MS2 coat protein” value by setting is: under setting [2], 18.4 nM; under setting [3], 17.2 nM; under setting [4], 18.2 nM.

For “AGCAAGCAAUAGGAUAUGCCUGCAAGCUUGCACGCAGAAGGAUUGACUUGAGGAUCACCCAAGUGGGCUCCAAA [Xemaesti] (Eterna round: R97, puzzle: Exclusion 6)”, the “apparent KD of MS2 coat protein” value reads like this: (input ligand: FMN 200 uM) 356 nM; (input ligand: none) 83.6 nM.

In the case of “GCCACAGCAGGAUAUUCAAUAAUUCACAUGAGGAUCACCCAUGUCGAGCGAAAGCUCGAGGGAGAAGGGCUGUGGC [Mat - Exclusion 5 - Eli mod - D88] (puzzle: Exclusion 5)”, the “apparent KD of MS2 coat protein” value under setting [3] amounted to 34.4 nM.

With “GGCCGAGAACAGCUCCGCGCUGCCCUCAGCCGCUCAUUUACAUGAGGAUCACCCAUGUUUUUUGCUUGUCUUGUUUC [Antibe] (puzzle: Sensor v3, turn-off variant 2)”, the “apparent KD of MS2 coat protein” value runs as follows: under setting [2], 20.3 nM; under setting [3], 104 nM; under setting [4], 22.3 nM.

Take “CCCGUCGAUGUAGGAUAUGCCCGGGUCUCCCGGGCAGAAGGACAUGAGGAUCACCCAUGUUCAUGAGCAUCAGCCAUGAAUGGG [Double but mutated MS2] (Eterna round: R96, puzzle: Exclusion NG 1)”: the “apparent KD of MS2 coat protein” value by setting is: (input ligand: FMN 200 uM) 12.8 nM; under setting [1], 12.7 nM; (input ligand: none) 20.2 nM.

As for “GUAGCCCGAGGAUAUACAUGAGGAUCACCCAUGUAUCGUUCGAGAAGACUCGGCCCGUGUAGAAGGCGGUAUCC [Eternabot (L1) Solution 22] (Eterna round: R97, puzzle: Exclusion 3)”, the “apparent KD of MS2 coat protein” value by setting is: (input ligand: FMN 200 uM) 25.3 nM; (input ligand: none) 23.1 nM.

For “UUUGGGUCAGGAUAUUGUUAGUUUAGUUGUUUGUAUUAGUUCGAGAAGGGACAUGAGGAUCACCCAUGUGGUUU [Ex4 #78] (Eterna round: R97, puzzle: Exclusion 4)”, the “apparent KD of MS2 coat protein” value (input ligand: FMN 200 uM) was 81.4 nM and the “apparent KD of MS2 coat protein” value (input ligand: none) amounted to 85.3 nM.

Consider “AUGGGUACUUUCGGAACGACAUGAGGAUCACCCAUGUAUACUGAGGAUAUCCACUACUAAGGACGGGAGAAGGCAGUGUACUGU [Ex NG3 #80] (Eterna round: R96, puzzle: Exclusion NG 3)”, for which the “apparent KD of MS2 coat protein” value is 27 nM (input ligand: FMN 200 uM), 12.1 nM under setting [1] and 18.5 nM (input ligand: none).

For the sequence “GCUCUGUGAGGAUAUAUAACGCAUUGGAUAGUGAAACUUAGACAUGAGGAUCACCCAUGUAGAAGGUACGGUAG [Eternabot (L2) Solution 76] (Eterna round: R97, puzzle: Exclusion 2)”, the “apparent KD of MS2 coat protein” value was 77.8 nM (input ligand: FMN 200 uM) and 99 nM (input ligand: none).

As for “GAUGUGGGUUUCCGGAGUAACAUGAGGAUCACCCAUGUAGAAGUUGGAGGGAUAAUGCUUUUUGCUCGUUACACGUG [JR_SV3TOV1_Sub054] (puzzle: Sensor v3, turn-off variant 1)”, the “apparent KD of MS2 coat protein” value under setting [2] turned out to be 404 nM, the “apparent KD of MS2 coat protein” value under setting [3] was 323 nM and the “apparent KD of MS2 coat protein” value under setting [4] turned out to be 538 nM.

In the case of “GCCAGAGCAGGAUAUUCAAUAUAUCACAUGAGGAUCACCCAUGUCCAGCGAAAGCUGGAGGGAGAAGGGCUCUGGC [Fiskers Ex 5 - 16] (puzzle: Exclusion 5)”, the “apparent KD of MS2 coat protein” value was found to be 99.5 nM under setting [2], 416 nM under setting [3] and 390 nM under setting [4].

With “AGACAACAUGAGGAUCACCCAUGUAAGGAUAUACAAGAUUUGAGAAACGGACUGCCUUGUAGAAGGUACAGGUG [Eternabot (L2) Solution 9] (Eterna round: R97, puzzle: Exclusion 1)”, the “apparent KD of MS2 coat protein” value is, setting by setting: (input ligand: FMN 200 uM) 51 nM; (input ligand: none) 36.7 nM.

Take “UUGUCGGCAGGAUAUACAUGAGGAUCACCCAUGUAAAUUUUUCGUUUAACUUGAAUGUGUAGAAGGGCCAUGUA [Ex3 #70] (Eterna round: R97, puzzle: Exclusion 3)”: the “apparent KD of MS2 coat protein” value is, setting by setting: (input ligand: FMN 200 uM) 28.2 nM; (input ligand: none) 25.2 nM.

Take “CUGAACAUAGGAUAUACAUGAGGAUCACCCAUGUAUAUAAAAGGGUGUUCCAACUAAAGUAGAAGGAUGUAUAG [ExFusion 4 - Jieux - Exclusion 3] (Eterna round: R97, puzzle: Exclusion 3)”: the “apparent KD of MS2 coat protein” value runs as follows: (input ligand: FMN 200 uM) 45.1 nM; (input ligand: none) 57.8 nM.

In the case of “UGGUGUGAAGGAUAUACAUGAGGAUCACCCAUGUAUGUGGUGUGUGUUGAGGUGGAGGGUAGAAGGUCAGGUGG [JR_Exclusion3_Sub014] (puzzle: Exclusion 3)”, the “apparent KD of MS2 coat protein” value under setting [3] is 35.9 nM.

As to “CGAUGCACGAAUCCACAUGAGGAUCACCCAUGUCGUGUUAGCGAGGAUAUCGGAGACACAUAGUAUGAGAAGGCGCGAACCUGA [Ex NG3 #22] (Eterna round: R96, puzzle: Exclusion NG 3)”, the “apparent KD of MS2 coat protein” value (input ligand: FMN 200 uM) worked out at 13.1 nM, the “apparent KD of MS2 coat protein” value under setting [1] turned out to be 11.9 nM and the “apparent KD of MS2 coat protein” value (input ligand: none) is 13.1 nM.

For “AGAAGUAAAUAAGGAUAUCCAUGGGAGAGUGAAGGAGAAGGUAUAAUGUAUUCCAAUGUACCCACUAGGAGUACAAGAUGUUGA [Default title] (Eterna round: R96, puzzle: Exclusion NG 1)”, the “apparent KD of MS2 coat protein” value is 47.9 nM (input ligand: FMN 200 uM), 4.55 nM under setting [1] and 23.1 nM (input ligand: none).

In the case of “UAACCUCGCGUCAGGAUAUGUGAGGACUGUGACGCACAGAAGGGACAUGAGGAUCACCCAUGUGAAAGAAAUAA [Erlacema] (puzzle: Brourd's mod of Exclusion 4)”, the “apparent KD of MS2 coat protein” value under setting [3] is 22.2 nM.

In the case of “AGGACAUCAGGCGGCAUGUACAUGAGGAUCACCCAUGUCCUAGAAAGCUGUAUGCUCGUCUUAGGCCCAACCUCGCU [Eternabot (Original) Solution 13] (Eterna round: R97, puzzle: Sensor, turn-off variant 1)”, the “apparent KD of MS2 coat protein” value is 65.1 nM (input ligand: FMN 200 uM) and 61 nM (input ligand: none).
